Values of other authors in patent US7930157B2, “Computational method and apparatus for predicting polypeptide aggregation or solubility” (Cambridge University Technical Services Ltd., priority 2003, dated 2011).
Read-outs that look alike come from different tables or passages of the source. Where no end group is shown, it is not given here.

Columns and labels:
[1] = for hydrophobicity: neutral pH, based on partition coefficients from water to octanol
[2] = for charge: neutral pH
[3] = normalised from 0 (high β-sheet propensity) to 1 (low); glycine from theoretical calculations
[4] = experimental aggregation rate of mutant relative to wild type; growth phase only
[5] = compared to the human calcitonin sequence
[6] = pH lower than 6.0, histidine positively charged
[7] = τ obtained using T1 (nucleation time)
[8] = τ obtained using T2 (half time of aggregation)

Compound: N[C@@H](CCC(=O)O)C(=O)O [Glu (E), Glu]
- hydrophobicity [1]: 0.696 kcal/mol

Compound: N[C@@H](Cc1c[nH]cn1)C(=O)O [His (H), His]
- hydrophobicity (value in brackets) [1, 6]: 0.686 kcal/mol
- charge (value in brackets) [2, 6]: +1

Compound: NCCCC[C@H](N)C(=O)O [Lys (K), Lys]
- hydrophobicity [1]: 0.662 kcal/mol
- β-sheet propensity [3]: 0.34
- charge [2]: +1

Compound: N[C@@H](Cc1c[nH]c2ccccc12)C(=O)O [Trp (W), Trp]
- hydrophobicity [1]: -0.509 kcal/mol
- β-sheet propensity [3]: 0.24
- charge [2]: 0

Compound: F23A: single-point mutation F23A of amylin (islet amyloid polypeptide), ref. 11 (KCNTATCATQRLANFLVHSSNNAGAILSSTNVGSNTY; ends and bridges not checked; cysteine pairing not given here; UniProt P10997 34-70, looked up, variant F23A)
- observed ln (νmut/νwt) [4]: −2.65

Compound: G24A: single-point mutation G24A of amylin (islet amyloid polypeptide), ref. 11 (KCNTATCATQRLANFLVHSSNNFAAILSSTNVGSNTY; ends and bridges not checked; cysteine pairing not given here; UniProt P10997 34-70, looked up, variant G24A)
- observed ln (νmut/νwt) [4]: −0.03

Compound: I26A: single-point mutation I26A of amylin (islet amyloid polypeptide), ref. 11 (KCNTATCATQRLANFLVHSSNNFGAALSSTNVGSNTY; ends and bridges not checked; cysteine pairing not given here; UniProt P10997 34-70, looked up, variant I26A)
- observed ln (νmut/νwt) [4]: −2.39

Compound: L27A: single-point mutation L27A of amylin (islet amyloid polypeptide), ref. 11 (KCNTATCATQRLANFLVHSSNNFGAIASSTNVGSNTY; ends and bridges not checked; cysteine pairing not given here; UniProt P10997 34-70, looked up, variant L27A)
- observed ln (νmut/νwt) [4]: −0.93

Compound: N22A: single-point mutation N22A of amylin (islet amyloid polypeptide), ref. 11 (KCNTATCATQRLANFLVHSSNAFGAILSSTNVGSNTY; ends and bridges not checked; cysteine pairing not given here; UniProt P10997 34-70, looked up, variant N22A)
- observed ln (νmut/νwt) [4]: 0.69

Compound: S20G: single-point mutation S20G of amylin, ref. 12 (KCNTATCATQRLANFLVHSGNNFGAILSSTNVGSNTY; ends and bridges not checked; cysteine pairing not given here; UniProt P10997 34-70, looked up, variant S20G)
- observed ln (νmut/νwt) [4]: 1.01

Compound: SEQ ID NO 14: calcitonin sequence reported in Zurdo & Dobson (WO 02/083734), 6 modified positions when compared to the human sequence (CGNLSTCMLGKLTQELRKLHTFPQTAIGVGAP; ends and bridges not checked; cysteine pairing not given here)
- Observed (τmut/τwt) [5, 7]: 300
- observed ln (νmut/νwt) [5, 7]: −5.71
- Observed (τmut/τwt) [5, 8]: 100
- observed ln (νmut/νwt) [5, 8]: −4.61
